# T1: human CD70 expressed on Molm-13 tumor cells (human, UniProt P32970 1-193)
# T1 sequence (looked up): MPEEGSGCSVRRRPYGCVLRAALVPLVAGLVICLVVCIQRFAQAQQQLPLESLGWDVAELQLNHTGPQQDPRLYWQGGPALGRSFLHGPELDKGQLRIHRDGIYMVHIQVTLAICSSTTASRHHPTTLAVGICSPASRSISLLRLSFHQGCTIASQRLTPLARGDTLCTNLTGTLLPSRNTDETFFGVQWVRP
# T2: biotinylated recombinant human CD70 (extracellular domain, Fc tag) (human, UniProt P32970 52-193, chemically biotinylated using 5-fold excess of Biotin)
# T2 construct: Bought from ACROBiosystems; also called bio.hCD70; Bio.CD70; not shown: C-terminal Fc Tag of the bought protein (ACROBiosystems)
# T2 sequence: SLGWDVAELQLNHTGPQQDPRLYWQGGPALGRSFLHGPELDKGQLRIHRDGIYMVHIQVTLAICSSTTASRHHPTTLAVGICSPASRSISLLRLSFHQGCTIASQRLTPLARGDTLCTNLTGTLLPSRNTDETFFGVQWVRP
# B1: DARPin® protein #26 (designed binder)
# chain: MRGSHHHHHHGSDLGIKLLTAAYDGQLDEVRILLKAGADVNAKDLRGQTPLHYAAGLGHLEIVEVLLKAGADVNAKDLHGWTPLHLAAWSGHLEIVEVLLKAGADVNAQDVEGVTPADLAAVQGHQDIAEVLQKAAGSPTPTPTTPTPTPTTPTPTPTGSDLGQKLLEAAWAGQDDEVRELLKAGADVNAKNSRGWTPLHTAAQTGHLEIFEVLLKAGADVNAKNDKRVTPLHLAAALGHLEIVEVLLKAGADVNARDSWGTTPADLAAKYGHQDIAEVLQKAA
# B2: DARPin® protein #27 (designed binder)
# chain: MRGSHHHHHHGSDLGKKLLQAARAGQLDEVRELLKAGADVNAKDQQGLTPLHIAANLGHLEIVEVLLKAGADVNAKDLFGLTPLHLAAFEGHLEIVEVLLKAGADVNAKDQHGATPLHLAAWVGHLEIVEVLLKAGADVNAQDKSGKTPADLAARAGHQDIAEVLQKAAGSPTPTPTTPTPTPTTPTPTPTGSDLGQKLLEAAWAGQDDEVRELLKAGADVNAKNSRGWTPLHTAAQTGHLEIFEVLLKAGADVNAKNDKRVTPLHLAAALGHLEIVEVLLKAGADVNARDSWGTTPADLAAKYGHQDIAEVLQKAA
# B3: DARPin® protein #2 (designed binder)
# chain: MRGSHHHHHHGSDLGYKLLQAAYDGQLDEVRILLKAGADVNAKDSRGQTPLHYAASIGHLEIVEVLLKAGADVNAKDDHGWTPLHLAAWSGHLEIVEVLLKAGADVNAQDQEGTTPADLAAVQGHQDIAEVLQKAA
# notes: Parent of DARPin protein #24
# B4: DARPin® protein #1 (designed binder)
# chain: MRGSHHHHHHGSDLGYKLLQAAYDGQDDEVRILLAAGADVNAKDSRGQTPLHYAASIGHLEIVEVLLKAGADVNAKDDHGWTPLHLAAWSGHLEIVEVLLKAGADVNAQDQEGTTPADLAAVQSHEDIAEVLQKAA
# B5: DARPin® protein #24 (designed binder)
# chain: MRGSHHHHHHGSDLGIKLLTAAYDGQLDEVRILLKAGADVNAKDLRGQTPLHYAAGLGHLEIVEVLLKAGADVNAKDLHGWTPLHLAAWSGHLEIVEVLLKAGADVNAQDVEGVTPADLAAVQGHQDIAEVLQKAA
# notes: expressed as monovalent designed ankyrin repeat protein with N-terminal His-tag
# B6: DARPin® protein #9 (designed binder)
# chain: MRGSHHHHHHGSDLGKKLLQAARAGQLDEVRELLKAGADVNAKDQAGLTPLHIAAATGHLEIVEVLLKAGADVNAKDFSGLTPLHLAAFEGHLEIVEVLLKAGADVNAKDQHGQTPLHLAAWTGHLEIVEVLLKAGADVNAQDKSGKTPADLAARAGHQDIAEVLQKAA
# notes: Parent of DARPin protein #25
# B7: DARPin® protein #25 (designed binder)
# chain: MRGSHHHHHHGSDLGKKLLQAARAGQLDEVRELLKAGADVNAKDQQGLTPLHIAANLGHLEIVEVLLKAGADVNAKDLFGLTPLHLAAFEGHLEIVEVLLKAGADVNAKDQHGATPLHLAAWVGHLEIVEVLLKAGADVNAQDKSGKTPADLAARAGHQDIAEVLQKAA
# notes: as for B5
# How the values were obtained:
# [1] = biological target: T1, human CD70 expressed on Molm-13 tumor …; experiment: cell-based or functional assay
# [2] = biological target: T1, human CD70 expressed on Molm-13 tumor …; experiment: flow cytometry (MFI) on CD70-expressing Molm-13 N1 tumor cells
# Description: Binding of binding proteins of the invention to CD70 expressed on the surface of cells was analyzed by fluorescence activated cell sorting (FACS) flow cytometry. For this purpose, CD70-expressing tumor cells (Molm-13 N1) were seeded at 100,000 cells per well in a 96 well plate. DARPin® protein #2, DARPin® protein #9, DARPin® protein #24 and DARPin® protein #25 were titrated down in 1:5 dilution ratio starting at 2000 nM. Tumor cells were resuspended with diluted DARPin proteins and incubated for 60 minutes at 4° C., The assay was performed in PBS including 2% fetal bovine serum without human serum albumin (HSA). After washing twice with Phosphate Buffer saline (PBS), DARPin® protein specific tumor cell binding was detected by adding unlabeled primary anti-rabbit DARPin® antibody (anti-rabbit 1-1-1 antibody, CePower) at 2 μg/ml. An incubation step of at least 30 minutes at 4° C. followed. Afterwards, cells were washed with PBS and a secondary goat anti-rabbit antibody labelled with Alexa Fluor 488 antibody (ThermoFisher) at 2 μg/ml was added. The same incubation conditions applied. Finally, the cells were washed twice and resuspended In Cytofix fixation buffer (BD Biosciences) for 15 min at room temperature (RT). Median fluorescence intensities (MFI) of Alexa Fluor 488 DARPin® protein labelled tumor cells were measured by Attune NXT (ThermoFisher) using FlowJo software for analyses and GraphPad Prism 8 for data plotting.
# [3] = biological target: T2, biotinylated recombinant human CD70 …; experiment: SPR (ProteOn XPR36), bio.CD70 immobilized on NLC chip, DARPin as analyte
# Description: The binding affinities of purified ankyrin repeat proteins on recombinant human CD70 target were analyzed using a ProteOn XPR36 instrument (BioRad) and the measurement was performed according standard procedures known to the person skilled in the art.
# Bio.CD70 was immobilized on a NLC chip and the ankyrin repeat proteins were applied as titration with a starting concentration of 100 nM and then titrated down to 1.2 nM. The signals were double referenced against the PBST-treated control lane of L1 and A6. Analyte injection was performed for 120 s followed by a dissociation for 1500 s.
# [4] = biological target: T2, biotinylated recombinant human CD70 …; experiment: crude extract HTRF
# [5] = biological target: T2, biotinylated recombinant human CD70 …; experiment: SPR, bio.hCD70 on neutravidin-coated GLC chip, DARPin as analyte, 1:1 Langmuir fit
# Description: Moreover, the binding affinities of two additional purified ankyrin repeat proteins on recombinant human CD70 target were measured and analyzed with a procedure as described above for DARPin proteins #2, #3, #5 to #12. Briefly, neutravidin was precoated on a GLC chip (BioRad) to a level of 5300 RU. In a second step, bio.hCD70 was immobilized to a level of 510 RU. The binding of DARPin protein #24 and DARPin protein #25 to bio.hCD70 was measured by Injecting the DARPin® molecule in a serial dilution of […]. For all described measurements, an association of 120 s and dissociation of 1200 s using a constant flow of 100 μl/min were applied. The CD70 target was regenerated with 4M MgCl₂ applied for 30s. The signals were double referenced against interspot and the running buffer (PBST: PBS pH 7.4 containing 0.005% […]) treated control lane A6. The 1:1 Langmuir model was used for the fitting.
binder,measurement,setting,value
B1,"EC50 of in vitro T-cell activation and tumor cell killing (Molm-13-N1 target cells), improvement over the parental binding protein",[1],~7 fold
B2,"EC50 of in vitro T-cell activation and tumor cell killing (Molm-13-N1 target cells), improvement over the parental binding protein",[1],~31 fold
B3,EC50,[2],4.9 nM
same,Kd,[3],0.45 nM
B4,binding result,[4],binds
B5,EC50,[2],5.2 nM
same,Kd,[5],0.0081 nM
B6,EC50,[2],475 nM
same,Kd,[3],27 nM
B7,EC50,[2],27 nM
same,Kd,[5],13 nM

# Source: US20250074994A1 (Molecular Partners, published 2025)
